Measurements taken from paper PMC2952493 (Biochemistry, 2010).

Molecular target: the molecule itself
Test: SEC

B1: recombinant His-tagged TRUSS_(1-797) (natural protein, UniProt Q9JLV2 1-797, looked up)
chain: MAAAPAAAGAGASRGRRLAATAAAWGGWGGRPRPGNILLQLRQGQLTGRGLVRAVQFTETFLTERDKLSKWSGIPQLLLKLYATSHLHSDFVECQSILKEISPLLSMEAMAFVTEDRKFTQEATYPNTYIFDLFGGVDLLVEILMRPTISIRGQKLKISDEMSKDCLSILYNTCVCTEGVTKRLAEKNDFVIFLFTLMTSKKTFLQTATLIEDILGVKKEMIRLDEVPNLSSLVSNFDQQQLANFCRILAVTISEMDTGNDDKHTLLAKNAQQKKSLSLGPSAAEINQAALLSIPGFVERLCKLATRKVSESTGTASFLQELEEWYTWLDNALVLDALMRVANEESEHNQAPTVFPSLGTSEEGGLPHTSARAQLPQSMKIMHEIMYKLEVLYVLCVLLMGRQRNQVHRMIAEFKLIPGLNNLFDKLIWRKHSASALVLHGHNQNCDCSPDITLKIQFLRLLQSFSDHHENKYLLLNNQELNELSAISLKANIPEVEAVLNTDRSLVCDGKRGLLTRLLQVMKKEPAESSFRFWQARAVESFLRGTTSYADQMFLLKRGLLEHILYCIVDSECKSRDVLQSYFDLLGELMKFNVDAFKRFNKYINTDAKFQVFLKQINSSLVDSNMLVRCVTLSLDRFENQVDMKVAEVLSECRLLAYISQVPTQMSFLFRLINIIHVQTLTQENVSCLNTSLVILMLARRKERLPLYLRLLQRMEHSKKYPGFLLNNFHNLLRFWQQHYLHKDKDSTCLENSSCISFSYWKETVSILLNPDRQSPSALVSYIEEPYMDIDRDFTEE
stoichiometry N: 3
